According to article PMC11612968, “Endo-bind-n-seq: identifying RNA motifs of RNA binding proteins isolated from endogenous sources”:

Molecular target: T1, GST-ZC3H7B(415-956) (UniProt Q9UGR2 415-956)
T1 sequence: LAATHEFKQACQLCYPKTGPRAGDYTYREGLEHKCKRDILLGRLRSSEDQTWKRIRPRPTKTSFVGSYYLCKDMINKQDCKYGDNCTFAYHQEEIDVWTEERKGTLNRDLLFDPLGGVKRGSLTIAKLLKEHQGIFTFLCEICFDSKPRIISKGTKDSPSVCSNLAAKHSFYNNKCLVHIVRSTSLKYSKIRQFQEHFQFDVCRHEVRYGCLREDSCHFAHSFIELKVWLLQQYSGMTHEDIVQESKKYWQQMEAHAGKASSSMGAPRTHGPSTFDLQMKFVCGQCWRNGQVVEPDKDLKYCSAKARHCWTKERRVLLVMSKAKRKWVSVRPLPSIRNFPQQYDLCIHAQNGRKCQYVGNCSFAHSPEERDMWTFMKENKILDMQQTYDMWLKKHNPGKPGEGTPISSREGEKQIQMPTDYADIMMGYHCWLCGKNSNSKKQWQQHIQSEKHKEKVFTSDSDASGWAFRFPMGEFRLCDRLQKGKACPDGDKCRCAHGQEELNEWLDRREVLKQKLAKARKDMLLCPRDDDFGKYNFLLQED
Assay: filter binding; Filter binding: 50 mM Tris-HCl pH 8.0, 150 mM NaCl, 5% glycerol, 20 C; EMSA: 20 mM HEPES-KOH pH 7.4, 100 mM NaCl, 1 mM MgCl2, 0.1% Tween20, 40 mM EDTA, 10% glycerol, 70 C; competition: 25 mM Tris-HCl pH 7.5, 150 mM KCl, 3 mM MgCl2, 0.01% NP-40, 1 mg/ml BSA, 1 mM DTT, 5% glycerol, RT
Conditions: protein: recombinant; tags: N-terminal GST (pGEX-4T-1, TEV site); label: 5' 32P

Binder: AUAGUGUAGU (ssRNA) [ZC3H7B motif RNA (AUAG)]
- binding result: binds
